{"source": "paper PMC4457300", "origin": "cited, not measured here", "biological_target": "MLL MBM1 4-15 (Homo sapiens) (UniProt Q03164)", "data": [{"substance": "menin (from UniProt O00255)", "values": [{"measurement": "Kd", "value": 56, "unit": "nM"}]}]}
